Results from patent US20260029420A1, “ANTI-CB2 ANTIBODIES AND THEIR USE IN A FLOW CYTOMETRY ASSAY TO MEASURE CELL SURFACE CB2 EXPRESSION” (Hoffmann-La Roche Inc., priority 2022, published 2026).

Tests used:
Assay in all cases: Flow cytometry with increasing antibody levels on CHO K1 cells
Assay type in all cases: binding
CHO K1 h CB2 cell line = target: T1, CHO K1 h CB2 cell line (Homo sapiens, UniProt P34972); details: 0.1, 1 or 10 μg/ml antibody; CHO K1 hCB2
T1 construct: expressed in transfected cells; host or cells: CHO K1
T1 sequence (P34972 whole entry): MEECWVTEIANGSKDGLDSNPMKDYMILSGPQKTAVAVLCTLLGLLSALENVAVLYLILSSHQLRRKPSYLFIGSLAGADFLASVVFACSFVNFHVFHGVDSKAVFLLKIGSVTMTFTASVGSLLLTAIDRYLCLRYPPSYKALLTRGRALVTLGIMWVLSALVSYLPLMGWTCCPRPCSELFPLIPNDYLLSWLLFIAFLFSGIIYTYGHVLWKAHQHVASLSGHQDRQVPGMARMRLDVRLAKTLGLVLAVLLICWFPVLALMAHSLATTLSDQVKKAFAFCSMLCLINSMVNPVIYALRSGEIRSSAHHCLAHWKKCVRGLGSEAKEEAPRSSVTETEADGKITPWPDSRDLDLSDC
Source text: (§1) FIG. 3: Analysis of the specificity of the anti hCB2 antibody 1/622 for hCB2. Flow cytometric analysis with increasing concentrations of hCB2 antibody 1/622 in CHO cells transfected with hCB2 (light brick) and hCB1 (dark brick). Untransfected CHO cells (black) serve as a negative control. For detection an F(ab)2 goat-anti Mouse IgG3 PE antibody was used.
(§2) Further evidence for the specificity of the anti-human CB2 antibody 1/622 was generated by flow cytometry experiments using increasing levels of the antibody on untransfected, hCB1 or hCB2 transfected CHO K1.
(§3) The cells were washed 1× with 1× DPBS without CaCl2 and MgCl2 (Gibco, #14190-094). Accutase (Sigma, #A6964) was added and the cell were placed back in the incubator. Once the cells had detached, they were collected in a Falcon tube containing DMEM high glucose+GlutaMAX (Gibco, #31966-021) and 10% heat inactivated FBS (Gibco, #16140-071). Cells were centrifuged for 5 minutes at 250×g and 4° C. and the cell pellet was resuspended in cell staining buffer (BioLegend, #420201) and put them on ice until further usage. The cells were incubated with 0.1, 1 or 10 μg/ml hCB2-1/622 antibody and incubated for 30 minutes at 4° C. After the incubation, the tubes were centrifuged for 5 minutes with 250×g and 4° C. The supernatant was removed completely, cells were washed two times with cold cell staining buffer and supernatant removed completely after the centrifugation. Human FcR Blocking Reagent (Miltenyi Biotech, Cat #130-059-901) was diluted according to the package insert instructions with cold cell staining buffer. To each sample 50 μl was added, mixed and incubated for 10 minutes at 4° C. The secondary antibody Goat F(ab′)2 Anti-Mouse IgG3 PE (Southern Biotech, Cat #1102-09) was diluted 1:25 in cold cell staining buffer. To each sample 50 μl was added, mixed and incubated for 30 minutes at 4° C. in the dark. After the incubation cells were washed 2× with cold cell staining buffer and supernatant removed completely after centrifugation. […]

CHO K1 hCB1R = target: T2, CHO K1 hCB1R (Homo sapiens, UniProt P21554); details: 0.1, 1 or 10 μg/ml antibody
T2 construct: expressed in transfected cells; host or cells: CHO K1
T2 sequence (P21554 whole entry): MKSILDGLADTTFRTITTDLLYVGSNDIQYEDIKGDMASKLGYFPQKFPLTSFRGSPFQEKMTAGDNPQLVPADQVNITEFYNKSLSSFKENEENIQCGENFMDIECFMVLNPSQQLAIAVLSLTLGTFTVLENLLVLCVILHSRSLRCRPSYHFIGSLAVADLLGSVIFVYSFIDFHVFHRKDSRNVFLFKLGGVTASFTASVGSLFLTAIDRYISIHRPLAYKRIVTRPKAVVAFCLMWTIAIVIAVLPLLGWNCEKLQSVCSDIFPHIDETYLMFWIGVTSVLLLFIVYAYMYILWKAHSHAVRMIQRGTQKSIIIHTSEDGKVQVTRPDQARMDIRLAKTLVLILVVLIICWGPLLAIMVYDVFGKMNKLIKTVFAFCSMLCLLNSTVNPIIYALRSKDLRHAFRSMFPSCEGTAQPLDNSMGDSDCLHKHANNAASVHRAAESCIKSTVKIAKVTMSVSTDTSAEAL
Source text: as §1, §2, §3

[1] = system: untransfected CHO K1 controls; details: 0.1, 1 or 10 μg/ml antibody
Source text: as §1, §2, §3

B1: hCB2-1/622: murine IgG3 monoclonal anti-human CB2 antibody, VH SEQ ID NO: 1, VL SEQ ID NO: 2, HC SEQ ID NO: 3, LC SEQ ID NO: 4 (antibody)
heavy: EVQLQQSGPELVKPGASVKISCKTSGYTFTEYTMHWVRQSHGKSLEWIGGIDRYNGDTYYNQKFKDKATLTVDRSSSTAYMELRSLTSEDSAVYFCARNGAMDYWGQGISVTVSSATTTAPSVYPLVPGCSDTSGSSVTLGCLVKGYFPEPVTVKWNYGALSSGVRTVSSVLQSGFYSLSSLVTVPSSTWPSQTVICNVAHPASKTELIKRIEPRIPKPSTPPGSSCPPGNILGGPSVFIFPPKPKDALMISLTPKVTCVVVDVSEDDPDVHVSWFVDNKEVHTAWTQPREAQYNSTFRVVSALPIQHQDWMRGKEFKCKVNNKALPAPIERTISKPKGRAQTPQVYTIPPPREQMSKKKVSLTCLVTNFFSEAISVEWERNGELEQDYKNTPPILDSDGTYFLYSKLTVDTDSWLQGEIFTCSVVHEALHNHHTQKNLSRSPGK
light: DVVMTQTPLSLPVSLGDQASISCRSSQSLVHSNGNTYLHWFLQKPGQSPKLLIYKVSIRFSGVPDRFSGSGSGTDFTLKISRVEAEDLGVYFCSQSTHVPPLTFGAGTKLELKRADAAPTVSIFPPSSEQLTSGGASVVCFLNNFYPKDINVKWKIDGSERQNGVLNSWTDQDSKDSTYSMSSTLTLTKDEYERHNSYTCEATHKTSTSPIVKSFNRNEC
- median fluorescence intensity (MFI) signal (CHO K1 h CB2 cell line): dose related increase
- median fluorescence intensity (MFI) signal (CHO K1 hCB1R): remained at background levels
- median fluorescence intensity (MFI) signal [1]: remained at background levels
